Measured values taken from patent US20220363757A1 (SYMPHOGEN A S, published 2022).

T1: human LAG-3 domain 1-2 Fc fusion, point mutation #48 V101A (human, UniProt P18627 23-266)
T1 construct: not shown: human IgG1 Fc, AA P101-K330
T1 sequence: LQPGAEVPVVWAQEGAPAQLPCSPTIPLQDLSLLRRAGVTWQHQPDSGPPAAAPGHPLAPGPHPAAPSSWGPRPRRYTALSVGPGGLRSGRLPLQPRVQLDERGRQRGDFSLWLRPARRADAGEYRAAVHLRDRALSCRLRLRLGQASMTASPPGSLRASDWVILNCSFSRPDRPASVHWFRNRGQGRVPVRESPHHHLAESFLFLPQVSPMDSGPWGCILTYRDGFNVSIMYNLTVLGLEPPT

T2: human LAG-3 domain 1-2 Fc fusion, point mutation #17 Q66A (human, UniProt P18627 23-266)
T2 construct: not shown: human IgG1 Fc, AA P101-K330
T2 sequence: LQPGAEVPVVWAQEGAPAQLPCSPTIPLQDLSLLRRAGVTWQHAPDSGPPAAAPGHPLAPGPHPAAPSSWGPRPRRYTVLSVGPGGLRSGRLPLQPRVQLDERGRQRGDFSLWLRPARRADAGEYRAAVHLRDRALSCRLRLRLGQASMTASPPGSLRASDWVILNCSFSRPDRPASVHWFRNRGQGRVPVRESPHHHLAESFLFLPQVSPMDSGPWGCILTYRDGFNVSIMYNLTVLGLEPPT

T3: human LAG-3 domain 1-2 Fc fusion, point mutation #14 T62A (human, UniProt P18627 23-266)
T3 construct: not shown: human IgG1 Fc, AA P101-K330
T3 sequence: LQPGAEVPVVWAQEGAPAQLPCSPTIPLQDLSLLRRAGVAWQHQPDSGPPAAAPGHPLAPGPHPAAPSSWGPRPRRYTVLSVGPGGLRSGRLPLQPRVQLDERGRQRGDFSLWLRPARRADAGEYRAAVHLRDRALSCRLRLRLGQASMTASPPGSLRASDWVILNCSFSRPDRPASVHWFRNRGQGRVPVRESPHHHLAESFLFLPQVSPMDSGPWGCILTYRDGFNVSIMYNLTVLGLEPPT

T4: human LAG-3 domain 1-2 Fc fusion, point mutation #57 R113A (human, UniProt P18627 23-266)
T4 construct: not shown: human IgG1 Fc, AA P101-K330
T4 sequence: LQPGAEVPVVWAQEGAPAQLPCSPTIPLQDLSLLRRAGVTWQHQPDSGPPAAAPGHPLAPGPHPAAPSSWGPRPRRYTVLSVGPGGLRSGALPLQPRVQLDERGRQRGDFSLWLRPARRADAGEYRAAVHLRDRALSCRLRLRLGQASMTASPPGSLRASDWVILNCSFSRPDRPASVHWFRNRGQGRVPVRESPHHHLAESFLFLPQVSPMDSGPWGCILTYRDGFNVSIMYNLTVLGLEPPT

T5: human LAG-3 domain 1-2 Fc fusion, point mutation #54 R110A (human, UniProt P18627 23-266)
T5 construct: not shown: human IgG1 Fc, AA P101-K330
T5 sequence: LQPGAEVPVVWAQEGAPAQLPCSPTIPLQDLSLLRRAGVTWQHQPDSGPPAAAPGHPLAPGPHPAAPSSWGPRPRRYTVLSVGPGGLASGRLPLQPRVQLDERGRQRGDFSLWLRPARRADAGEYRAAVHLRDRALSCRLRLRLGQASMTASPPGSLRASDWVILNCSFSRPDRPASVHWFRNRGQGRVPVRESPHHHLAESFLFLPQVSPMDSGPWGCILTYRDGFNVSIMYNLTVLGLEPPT

T6: human LAG-3 domain 1-2 Fc fusion, point mutation #44 R97A (human, UniProt P18627 23-266)
T6 construct: not shown: human IgG1 Fc, AA P101-K330
T6 sequence: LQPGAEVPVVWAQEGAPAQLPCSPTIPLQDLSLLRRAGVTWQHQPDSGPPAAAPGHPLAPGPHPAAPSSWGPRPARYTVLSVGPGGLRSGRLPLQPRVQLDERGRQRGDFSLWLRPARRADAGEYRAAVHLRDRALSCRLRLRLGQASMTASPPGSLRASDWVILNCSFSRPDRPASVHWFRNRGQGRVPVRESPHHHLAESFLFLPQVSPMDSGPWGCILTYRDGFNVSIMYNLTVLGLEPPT

T7: human LAG-3 domain 1-2 Fc fusion, point mutation #80 R163A (human, UniProt P18627 23-266)
T7 construct: not shown: human IgG1 Fc, AA P101-K330
T7 sequence: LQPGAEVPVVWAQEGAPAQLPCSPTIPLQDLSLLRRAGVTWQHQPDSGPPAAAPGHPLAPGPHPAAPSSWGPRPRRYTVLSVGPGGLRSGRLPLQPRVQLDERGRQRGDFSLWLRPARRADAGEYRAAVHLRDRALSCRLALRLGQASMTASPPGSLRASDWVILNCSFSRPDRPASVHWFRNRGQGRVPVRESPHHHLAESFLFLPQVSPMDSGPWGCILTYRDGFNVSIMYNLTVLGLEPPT

T8: human LAG-3 domain 1-2 Fc fusion, point mutation #71 D131A (human, UniProt P18627 23-266)
T8 construct: not shown: human IgG1 Fc, AA P101-K330
T8 sequence: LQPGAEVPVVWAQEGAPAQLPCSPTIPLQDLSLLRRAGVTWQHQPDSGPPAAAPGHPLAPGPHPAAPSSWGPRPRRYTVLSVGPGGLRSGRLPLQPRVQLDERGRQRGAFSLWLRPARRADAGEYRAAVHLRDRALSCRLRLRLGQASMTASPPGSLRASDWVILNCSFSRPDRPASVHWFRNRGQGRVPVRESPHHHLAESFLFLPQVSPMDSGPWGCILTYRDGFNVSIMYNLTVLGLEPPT

T9: human LAG-3 domain 1-2 Fc fusion, point mutation #3 P43A (human, UniProt P18627 23-266)
T9 construct: not shown: human IgG1 Fc, AA P101-K330
T9 sequence: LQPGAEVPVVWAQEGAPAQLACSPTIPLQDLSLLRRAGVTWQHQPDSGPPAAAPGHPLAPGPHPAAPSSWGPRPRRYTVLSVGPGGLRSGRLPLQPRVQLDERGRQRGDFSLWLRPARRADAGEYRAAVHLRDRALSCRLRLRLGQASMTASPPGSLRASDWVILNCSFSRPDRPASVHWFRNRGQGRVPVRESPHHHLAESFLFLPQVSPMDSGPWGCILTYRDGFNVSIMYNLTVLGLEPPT

B1: Fab fragment of antibody 15532 (Fab, V domains shown, not shown: a dimerising Fc or GST)
VH: QVQLQQWGAGLLRPSETLSLTCAVYGESFSGYYWNWIRQPPGKGLEWIGEINHSGSTNYNPSLKSRVTISVDTSKTQFSLKLSSVTAADTAVYYCARGWDLLDWNDYWNEYWGQGTLVTVSS
VL: EIVLTQSPATLSLSPGERATLSCRASQSVSSYLAWYQQKPGQAPRLLIYDASNRATGIPARFSGSGSGTDFTLTISSLEPEDFAVYYCQQRSNWPLTFGGGTKVEIKR
notes: monomeric Fab made by GingisKHAN digestion of the IgG1
B2: Fab fragment of antibody 15431 (Fab, V domains shown, not shown: a dimerising Fc or GST)
VH: QVQLQQSGPGLVKPSQTLSLTCAISGDSVSSNSAAWNWIRQSPSRGLEWLGRTYYRSKWYNDYAVSVKSRITINPDTSKNQFSLQLNSVTPEDTAVYYCARDDDWNDFDYWGQGTLVTVSS
VL: EIVLTQSPATLSLSPGERATLSCRASQSVSSYLAWYQQKPGQAPRLLIYDASNRATGIPARFSGSGSGTDFTLTISSLEPEDFAVYYCQQRSNWPLTFGGGTKVEIKR
notes: as for B1
B3: Fab fragment of antibody 15011 (Fab, V domains shown, not shown: a dimerising Fc or GST)
VH: EVQLLESGGGLVQPGGSLRLSCAASGFDFRSYAMMWVRQAPGKGLEWVGGINGEVGGSNTYYAPAVKGRATISRDNSKNTLYLQMNSLRAEDTAVYYCVKGAGACGICNDDIDAWGQGTLVTVSS
VL: SYELTQDPAVSVALGQTVRITCSGAGSYAGSYYYGWHQQKPGQAPVTVIYDNDKRPSNIPDRFSGSSSGNTASLTITGAQAEDEADYYCGSTNDNDDGGLFGSGTKVTVLG
notes: as for B1
B4: Fab fragment of antibody 15572 (Fab, V domains shown, not shown: a dimerising Fc or GST)
VH: QLQLQESGPGLVKPSETLSLTCTVSGDSISSSSYYWGWIRQPPGKGLEWIGSIFYSGNTYYNPSLKSRVTISVDTSKNQFSLKLSSVTAADTAVYYCAREDDFLTDYYGAFDIWGQGTMVTVSS
VL: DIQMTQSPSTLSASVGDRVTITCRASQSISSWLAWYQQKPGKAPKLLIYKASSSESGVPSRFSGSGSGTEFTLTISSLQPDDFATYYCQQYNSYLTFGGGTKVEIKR
notes: as for B1

Legend:
Assay in all cases: SPR, Fab over captured mutant LAG-3-Fc;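 also: fc fusion variants captured on anti-human IgG Fc sensor, Fab injected with association then dissociation phases, KD obtained from Langmuir one-to-one fit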
[1] = target: T1, human LAG-3 domain 1-2 Fc fusion, point …
Experimental: (§1) The LAG-3 fusion proteins were immobilized onto a G-a-hu-IgG Fc SensEye® (Ssens BV, The Netherlands) for 15 minutes using a Continuous Flow Microspotter (CFM, Wasatch Microfluidics, Salt Lake City, US). After spotting, the SensEye® was positioned in an IBIS MX96 biosensor and captured proteins were evaluated for binding affinity. […] Fab association was performed for 15 minutes and antigen dissociation was performed for 15 minutes. The recorded binding responses were fitted to a simple Langmuir 1:1 binding model with Scrubber 2 software for calculation of the on-rate (kon or ka), off-rate (koff or kd) and affinity (KD) constants.

[2] = target: T2, human LAG-3 domain 1-2 Fc fusion, point …
Experimental: as §1

[3] = target: T3, human LAG-3 domain 1-2 Fc fusion, point …
Experimental: as §1

[4] = target: T4, human LAG-3 domain 1-2 Fc fusion, point …
Experimental: as §1

[5] = target: T5, human LAG-3 domain 1-2 Fc fusion, point …
Experimental: as §1

[6] = target: T6, human LAG-3 domain 1-2 Fc fusion, point …
Experimental: as §1

[7] = target: T7, human LAG-3 domain 1-2 Fc fusion, point …
Experimental: as §1

[8] = target: T8, human LAG-3 domain 1-2 Fc fusion, point …
Experimental: as §1

[9] = target: T9, human LAG-3 domain 1-2 Fc fusion, point …
Experimental: as §1

Binder	KD mutant/KD wild type [1]	KD mutant/KD wild type [2]	KD mutant/KD wild type [3]	KD mutant/KD wild type [4]	KD mutant/KD wild type [5]	KD mutant/KD wild type [6]	KD mutant/KD wild type [7]	KD mutant/KD wild type [8]	KD mutant/KD wild type [9]	binding result [1]	binding result [2]	binding result [3]	binding result [7]	binding result [8]	binding result [9]	binding result [5]
B1	3.5 fold	2.7 fold	4.2 fold	0.6 fold	0.9 fold	0.9 fold	2.5 fold	4.2 fold	3.8 fold							
B2				0.9 fold	0.9 fold	1.3 fold				no binding (tested: 300 nM)	no binding (tested: 300 nM)	no binding (tested: 300 nM)	no binding (tested: 300 nM)	no binding (tested: 300 nM)	no binding (tested: 300 nM)	
B3	0.5 fold	0.7 fold	0.6 fold	3.3 fold		0.7 fold	0.6 fold	0.6 fold	0.6 fold							no binding (tested: 300 nM)
B4				0.7 fold	0.6 fold	0.6 fold				no binding (tested: 300 nM)	no binding (tested: 300 nM)	no binding (tested: 300 nM)	no binding (tested: 300 nM)	no binding (tested: 300 nM)	no binding (tested: 300 nM)	
